Each block holds one binder with its values, some of them ahead of it.
Molecular target: T1, natural Bla g 2 (Blattella germanica, UniProt P54958)
T1 construct: Glycosylated natural allergen; also called nBla g 2; natural allergen
Test: ELISA; two-site dose-response: mAb 7C11 or 4C3 as capture antibody, allergen titrated, detection with biotinylated mAb 4C3 (21 nM) or 7C11 (4 nM), respectively, or polyclonal antibody (53 nM)
Conditions: both partners purified

T1 sequence (P54958 whole entry, looked up): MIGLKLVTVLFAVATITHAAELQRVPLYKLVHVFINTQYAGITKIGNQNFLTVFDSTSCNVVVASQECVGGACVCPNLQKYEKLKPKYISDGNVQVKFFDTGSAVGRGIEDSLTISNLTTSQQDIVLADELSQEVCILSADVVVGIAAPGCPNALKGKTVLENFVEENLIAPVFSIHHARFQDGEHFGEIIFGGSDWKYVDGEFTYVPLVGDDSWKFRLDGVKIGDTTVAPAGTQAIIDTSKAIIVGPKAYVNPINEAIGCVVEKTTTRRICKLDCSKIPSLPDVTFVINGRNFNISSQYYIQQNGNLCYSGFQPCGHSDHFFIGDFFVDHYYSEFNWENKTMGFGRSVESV

- binding result: binds
B1: monoclonal antibody 4C3 (anti-Bla g 2) (antibody, V domains shown)
VH: EVQLVESGGGLVQPGGSLKLSCAASGFTFSSFAMSWGRQTPDKRLELVATINSNGASTYYPDTVKGRFTISRDNAKNTLFLQMSSLKSEDTAMYYCTRDPAGRAWFAYWGQGTLVTVSA
VL: QIVLTQSPSSMYASLGERVTITCKASQDINNYLSWFQQKPGKSPKTLIYRADRLVDGVPSRVSGSGSGQDYSLTISSLEYEDLGIYYCLQYDELPYTFGGGTKLEIK
notes: the Fab of mAb 4C3 stands in PDB 3liz (complex with Bla g 2), heavy chain; the Fab of mAb 4C3 stands in PDB 3liz (complex with Bla g 2), light chain; Whole mAb in the assays; the PDB entry holds only the Fab fragment; also called mAb 4C3; biotinylated mAb 4C3

- binding result: binds
B2: monoclonal antibody 7C11 (anti-Bla g 2) (antibody, V domains shown)
VH: EIQLQQSGAELVKPGASVKLSCTASGFNIKDTYIHWVKQRPEQGLEWIGRIDPANGNTRYGPKFLGKATITADTSSNTAYLHLNSLTSEDTAVYFCARWVRQMDYWGQGTSVTVSS
VL: DIVMTQSHKFMSTSVGDRVSITCKASQIVSTAVAWYQQKPGQSPKLLIYSASYRYTGVPDRFTGSGSGTDFTFTISSVQAEDLAVYYCQQHYNSPQTFGGGTKLEIK
notes: the Fab' of mAb 7C11 stands in PDB 2nr6 (complex with Bla g 2), heavy chain; the Fab' of mAb 7C11 stands in PDB 2nr6 (complex with Bla g 2), light chain; Whole mAb in the assays; the PDB entry holds only the Fab' fragment; also called mAb 7C11; biotinylated mAb 7C11

Source: PMC3137622, “Mechanisms of Allergen-Antibody Interaction of Cockroach Allergen Bla g 2 with Monoclonal Antibodies That Inhibit IgE Antibody Binding” (PLoS ONE, 2011)
